From PMC4586043

Legend:
[1] = molecular target: BG505 SOSIP.664 trimer produced in 293S cells (HIV-1 isolate BG505); assay: ITC
[2] = molecular target: BG505 SOSIP.664 trimer produced in 293S cells, deglycosylated by EndoH (HIV-1 isolate BG505); assay: ITC; Auto-iTC200; trimer in the cell at 4.0–5.0 μM, 3BC315 Fab in the syringe at ~20 × the molar concentration of the trimer; single-site binding model
[3] = molecular target: His-tagged BG505 SOSIP.664 trimer produced in 293S cells, EndoH-deglycosylated (HIV-1 isolate BG505); assay: SPR; Biacore 3000, 25 °C, HBS-EP; His-tagged trimer captured by anti-histidine antibody on CM5 to 500 RU; 3BC315 IgG or Fab titrated down in twofold steps from 1 μM; IgG fitted with a bivalent, Fab with a Langmuir model
[4] = molecular target: His-tagged BG505 SOSIP.664 trimer produced in 293T cells (HIV-1 isolate BG505); assay: SPR; parameters: kon1: unit not given here
2G12 = assay: ELISA; settings: read at the highest antibody concentration, 1 µg/ml 2G12, read off a plot
3BC315 Fab = assay: ELISA; settings: read off a plot
3BC176 IgG = assay: ELISA; settings: parent: est. 0.92; read off a plot
PGT145 = assay: ELISA; settings: read at the highest antibody concentration, about 15 µg/ml PGT145; parent: est. 0.87; read off a plot
[5] = molecular target: BG505 Env on virus (HIV-1 isolate BG505)
[6] = molecular target: JR-FL Env on virus (HIV-1 isolate JR-FL) (UniProt Q75760)

**Q.** 3BC315 Fab was tested. Which Kd [1] did it give?
**A.** 186 nM

**Q.** And the stoichiometry N [1]?
**A.** 1.17

**Q.** And the Kd [2]?
**A.** 167 nM

**Q.** What about the stoichiometry N [2] of the same molecule?
**A.** 1.71

**Q.** What about the Kd [3] of the same molecule?
**A.** 7.1 nM

**Q.** And the koff [3]?
**A.** 0.00059 s⁻¹

**Q.** And the stoichiometry N [3]?
**A.** 1.9

**Q.** For 3BC315 IgG (antibody), which Kd1 [4] is on record?
**A.** < 10 nM

**Q.** And the Kd2 [4]?
**A.** 24 RU

**Q.** And the koff1 [4]?
**A.** < 1e-05 s⁻¹

**Q.** What about the koff2 [4] of the same molecule?
**A.** 0.0084 s⁻¹

**Q.** And the kon1 [4]?
**A.** 4900

**Q.** What about the kon2 [4] of the same molecule?
**A.** 0.00034 RUs^−1

**Q.** And the stoichiometry N [4]?
**A.** 1.1

**Q.** How did the response (2G12; parent: est. 1.2) turn out when “D7324-tagged BG505 SOSIP.664 trimer produced in 293T cells N88Q” was run?
**A.** 1 OD450

**Q.** What about the response (3BC315 Fab) of the same molecule?
**A.** 0.98 OD450

**Q.** For “D7324-tagged BG505 SOSIP.664 trimer produced in 293T cells N625Q; N637Q”, which response (3BC315 Fab; read at the highest concentration, 10 µg/ml 3BC315 Fab, parent: est. 1.1) is on record?
**A.** 0.93 OD450

**Q.** Which results are given for “D7324-tagged BG505 SOSIP.664 trimer produced in 293T cells W623A”?
**A.** response (2G12; parent: est. 1.25): 1.2 OD450; response (3BC176 IgG): 0.4 OD450; response (PGT145): 0.83 OD450

B1: 3BC176 IgG (antibody, V domains shown)
VH: QVQLMQSGAQLRDPGDSLKISCKASGYNFIDYHIHWVRLAPGRGLEWMGWIDPVGGITKYAGQFQGRLSLTRDTSTNTLFLELSRLTAGDTAVYFCARSMRPVDHGIDYSGLFVFHFWGRGSDVLVSS
VL: QSVLTQPASVSASPGQSITVSCTGSRNDVGGYDFVSWYQRHPGGVPKLIIYEISKRPSGIPQRFSGSRSGNTASLTISGLQDDDEADYYCCSYASYDRLIFGGGTRVSVL
**Q.** For B1, which IC50 of neutralisation of BG505 virus (TZM-bl) after 1, 3, 6 and 22 h pre-incubation with IgG (1.93 falling to 0.33) [5] is on record?
**A.** 1.93 µg/mL

**Q.** And the IC50 of neutralisation of JR-FL virus (TZM-bl) after 1, 3, 6 and 22 h pre-incubation with IgG (0.30 falling to 0.03) [6]?
**A.** 0.3 µg/mL

B2: 3BC315 IgG (antibody, V domains shown)
VH: QVQLVQSGAEMKDPGASVKVSCRASGYKFTDYYMHWVRQAPGQGLEWVGWVNTNGGFTKYGAKFQGRVTVTRDTSTNTVFLELSRLTFGDTAMYFCARPMRPVSHGIDYSGLFVFQFWGRGTMVTVSS
VL: QSALTQPASVSASPGQSITISCSGTRSDVGGYDFVSWYQQHPGKVPKLIIYEVTKRPSGIPQRFSGSKSGNTASLTISGLQADDEADYYCCSYANYDKLILGGGTKLTVL
**Q.** How did the IC50 of neutralisation of BG505 virus (TZM-bl) after 1, 3, 6 and 22 h pre-incubation with IgG (1.62 falling to 0.41) [5] turn out when B2 was run?
**A.** 1.62 µg/mL

**Q.** What about the IC50 of neutralisation of JR-FL virus (TZM-bl) after 1, 3, 6 and 22 h pre-incubation with IgG (5.84 falling to 0.83) [6] of the same molecule?
**A.** 5.84 µg/mL
